Several values for one entry are separate records, joined by “and”; a condition that tells them apart may be missing. Equal entries are not always repeated. Where no end group is shown, it is not given here. [ ]: non-standard residue; d: D form. pS = N[C@@H](COP(=O)(O)O)C(=O)O
T1: 14-3-3 epsilon (Homo sapiens)
T1 chain: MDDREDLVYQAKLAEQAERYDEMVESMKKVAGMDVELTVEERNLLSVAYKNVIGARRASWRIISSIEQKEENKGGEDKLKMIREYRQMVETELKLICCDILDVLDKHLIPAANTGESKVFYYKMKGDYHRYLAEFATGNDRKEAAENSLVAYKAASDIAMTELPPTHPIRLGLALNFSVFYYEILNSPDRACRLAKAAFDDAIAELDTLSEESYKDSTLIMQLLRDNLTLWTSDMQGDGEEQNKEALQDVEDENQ

T2: 14-3-3 theta (Homo sapiens)
T2 chain: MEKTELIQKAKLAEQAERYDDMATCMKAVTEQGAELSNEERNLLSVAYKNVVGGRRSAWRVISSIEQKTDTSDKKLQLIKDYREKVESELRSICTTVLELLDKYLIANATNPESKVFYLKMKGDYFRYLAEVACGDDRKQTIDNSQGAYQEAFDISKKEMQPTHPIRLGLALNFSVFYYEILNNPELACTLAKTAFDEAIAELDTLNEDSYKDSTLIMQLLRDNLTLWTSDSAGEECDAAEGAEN

T3: 14-3-3σ-ΔC (C-terminally truncated human 14-3-3σ) (human, UniProt P31947 1-231)
T3 chain: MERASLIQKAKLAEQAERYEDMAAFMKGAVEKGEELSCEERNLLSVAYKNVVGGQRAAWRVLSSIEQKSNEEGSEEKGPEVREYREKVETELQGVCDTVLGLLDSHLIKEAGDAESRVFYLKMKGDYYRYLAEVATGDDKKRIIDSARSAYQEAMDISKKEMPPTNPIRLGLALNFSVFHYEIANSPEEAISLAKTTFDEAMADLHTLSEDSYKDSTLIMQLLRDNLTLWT

B1: Sirt3^S103 nonphosphorylated peptide (peptide)
chain: GRRSISFSVGA
modifications: none (nonphosphorylated Ser103). Limits are not given; they are taken from the 11-residue peptide in PDB 8ANC entity 2 (GRRSISFSVGA, S103 at position 6), assuming the same endecamer …
B2: 14-3-3σ-ΔC (C-terminally truncated human 14-3-3σ) (domain or fragment, UniProt P31947 1-231, looked up)
chain: T3 chain
notes: 14-3-3σ, human, C-terminally truncated gene fragment (ΔC) cloned into pPROEX-HTb; the structures show 'all 231 residues of the 14-3-3 monomer'; No removal of the His6 tag is described; The dimer in the crystals is formed with a symmetry mate; also called 14-3-3-ΔC; source: E. coli BL21 Rosetta (DE3), purified (nickel-nitrilotriacetic acid column)

Key:
[1] = target: T1, 14-3-3 epsilon; assay: MST
[2] = target: T2, 14-3-3 theta; assay: MST
[3] = target: 14-3-3σ-ΔC (C-terminally truncated human 14-3-3σ) (human) (UniProt P31947); assay: ITC; 150 µM 14-3-3σ-ΔC in the cell, fourfold-concentrated phosphopeptide in the needle; 2 µl injections; 25°C; one-site fit; apparent
[4] = target: B2; assay: MST; label-free, intrinsic fluorescence of the 14-3-3 protein; 0.6 µM 14-3-3 protein titrated with peptide; 25 mM MES pH 6.5, 5 mM MgCl2, 5 mM CaCl2; 25°C; conditions: both partners purified
[5] = target: the molecule itself; assay: crystal structure; protein and peptide mixed 1:1.5; 0.1 M HEPES-NaOH pH 7.5, 0.2 M CaCl2, 24-28% PEG 400, 5% glycerol, 1 mM TCEP, 4°C
[6] = target: T3, 14-3-3σ-ΔC (C-terminally truncated …); assay: MST
[7] = target: 14-3-3σ-ΔC (C-terminally truncated human 14-3-3σ) (human) (UniProt P31947); assay: MST; label-free, intrinsic fluorescence of the 14-3-3 protein; 0.6 µM 14-3-3 protein titrated with peptide; 25 mM MES pH 6.5, 5 mM MgCl2, 5 mM CaCl2; 25°C

VLSSS[pS]CGSNS (also: phosphoserine at 670 (place in chain not given here)) [Sirt1^pS670 phospho-endecamer peptide]
Kd [1]: > 183 µM
Kd [2]: 93 µM
Kd [3]: 5 µM

B1
Kd [4]: ~881 µM

B2
binding result [5]: binds

GRRSI[pS]FSVGA (also: phosphoserine at 103 (place in chain not given here)) [Sirt3^pS103 phospho-endecamer peptide]
Kd [6]: 10 µM
Kd [1]: > 267 µM
Kd [2]: 52 µM
Kd [7]: 1.5 µM and 2.1 µM

Source: publication PMC12809495, “Potential 14-3-3 binding sites in sirtuins reveal extended phosphosite-recognition modes” (Acta Crystallographica Section F: Structural Biology …, 2026)
